Target: T1, PPE41 protein of Mycobacterium tuberculosis (Mycobacterium tuberculosis, UniProt Q79FE1 1-194)
T1 construct: also called Rv2430c; rRv2431c (as printed in the methods)
T1 sequence: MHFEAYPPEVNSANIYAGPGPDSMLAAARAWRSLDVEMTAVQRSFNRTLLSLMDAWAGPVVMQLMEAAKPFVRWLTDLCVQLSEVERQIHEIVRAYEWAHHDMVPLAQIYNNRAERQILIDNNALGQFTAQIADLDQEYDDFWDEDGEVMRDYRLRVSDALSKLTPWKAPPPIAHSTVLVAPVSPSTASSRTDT
Experiment: co-purification by Cobalt affinity chromatography
Conditions: partners not purified

B1: PE25 protein of Mycobacterium tuberculosis (natural protein)
chain: MSFVITNPEALTVAATEVRRIRDRAIQSDAQVAPMTTAVRPPAADLVSEKAATFLVEYARKYRQTIAAAAVVLEEFAHALTTGADKYATAEADNIKTFS
notes: also called Rv2431c; rRv2430c (as printed in the methods)
B1: binds.
